From patent publication US20240366776A1 (Hoffmann-La Roche, published 2024)

Assays:
human IL-2 [1] = target: T1, human IL-2 (human, UniProt P60568 21-153, biotin-labeled in the IL2RB blocking assay); assay: HTRF
T1 construct: also called biotin-labeled IL-2 (Acro Biosystems IL2-H82E4)

PD-1 = PD-1 (human, UniProt Q15116 25-167, limits assumed); assay: HTRF
human IL-2 [2] = target: T1, human IL-2; assay: HTRF IL-2:IL2RB

Sequence of PD-1 (Q15116 25-167 limits assumed): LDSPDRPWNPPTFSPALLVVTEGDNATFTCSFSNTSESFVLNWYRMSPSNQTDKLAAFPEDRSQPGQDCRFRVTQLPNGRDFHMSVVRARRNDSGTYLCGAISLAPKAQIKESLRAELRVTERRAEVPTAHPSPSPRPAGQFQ
T1 sequence (P60568 21-153 limits assumed): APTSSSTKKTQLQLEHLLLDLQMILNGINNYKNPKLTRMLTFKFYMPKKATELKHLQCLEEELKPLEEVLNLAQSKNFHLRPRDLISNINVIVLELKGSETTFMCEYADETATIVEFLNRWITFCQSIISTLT

| Binder | IL2 Binding (human IL-2 [1]) | PD1 Binding (PD-1) | IL2RB Blocking (human IL-2 [2]) |
| --- | --- | --- | --- |
| PD1-IL2-R07-A04 (scFv) QVQLVQSGAEVKKPGASVKVSCKASGYTFTDYYMHWVRQAPGQGLEWMGIINPRAGYTSYALKFQGRVTMTRDTSTSTVYMELSSLRSEDTAVYYCTSGMDVWGQGTLVTVSSASGGGGSGGGGSGGGGSHASDIQMTQSPSSLSASVGDRVTITCRASQSISTWLAWYQQKPGKAPKLLIYAASSLQSGVPSRFSGSGSGTDFTLTISSLQPEDFATYYCQQSYSFPVTFGQGTKVEIK | 973 | 730 | 1610 |
| PD1-R04-C10 (scFv, tied by the comment 'PD1_R04_C10- Internal anti-PD1 mAb' of PEP001315) scFv: MSTSTEQKLISEEDLQVQLVQSGAEVKKPGASVKVSCKASGYTFTTYYMHWVRQAPGQGLEWMGIINPSGGGTLYAQKFQGRVTMTRDTSTSTVYMELSSLRSEDTAVYYCAAGLFIWGQGTTVTVSSASGGGGSGGGGSGGGGSHASDIVMTQSPDSLAVSLGERATINCKASQSLLHSSSNKNYLAWYQQKPGQPPKLLIYWASTRESGVPDRFSGSGSGTDFTLTISSLQAEDVAVYYCQQYYSTPITFGPGTKVDIKGSGLNDIFEAQKIEWHEGKPIPNPLLGLDST | 4 | 1550 | 1550 |
| PD1-IL2-R02-A11 (scFv, V domains shown, cf) VH: QVQLVQSGAEVKKPGASVKVSCKASGHTFTRYYMHWVRQAPGQGLEWMGIINPSGGYATYAQKFQGRVTMTRDTSTSTVYMELSSLRSEDTAVYYCASGWDVWGQGTLVTVSS VL: DIQMTQSPSSLSASVGDRVTITCRASQSINSWLAWYQQKPGKAPKLLIYATSTLESGVPSRFSGSGSGTDFTLTISSLQPEDFATYYCQQSYSFPPTFGQGTKVEIK | 1560 | 1620 | 1780 |
| PD1-IL2-R02-B05 (scFv) QVQLVQSGAEVKKPGASVKVSCKASGYTFTNYYIHWVRQAPGQGLEWMGIINPRAGYTSYALKFQGRVTMTRDTSTSTVYMELSSLRSEDTAVYYCAGGWLDWGQGTLVTVSSASGGGGSGGGGSGGGGSHASDIQMTQSPSSLSASVGDRVTITCRASQSISSWLAWYQQKPGKAPKLLIYAASSLQSGVPSRFSGSGSGTDFTLTISSLQPEDFATYYCQQSFTMPITFGQGTRLEIK | 2490 | 1660 | 1610 |
| PD1-IL2-R07-A09 (SEQ ID NO: 34) (scFv, V5-tagged in the assay) scFv: QVQLVQSGAEVKKPGASVKVSCKASGYTFTSYYMHWVRQAPGQGLEWMGIINPSDGSTTYAQSFQGRVTMTRDTSTSTVYMELSSLRSEDTAVYYCASGWDVWGQGTLVTVSSASGGGGSGGGGSGGGGSHASDIVMTQSPDSLAVSLGERATINCKSSQSVFSSANNKNYLAWYQQKPGQPPKLLIYWASTRESGVPDRFSGSGSGTDFTLTISSLQAEDVAVYYCQQYFGTPVTFGGGTKVEIK | 2040 | 1240 | 910 |
| PD1-IL2-R06-E04 (SEQ ID NO: 33) (scFv, V5-tagged in the assay) scFv: QVQLVQSGAEVKKPGASVKVSCKASGYTFTRYYIHWVRQAPGQGLEWMGWINAYNGDTNYAQKLQGRVTMTRDTSTSTVYMELSSLRSEDTAVYYCARDSYYYDSFDYWGQGTLVTVSSASGGGGSGGGGSGGGGSHASDIQMTQSPSSLSASVGDRVTITCRASQTITDWLAWYQQKPGKAPKLLIYGASNLQGGVPSRFSGSGSGTDFTLTISSLQPEDFATYYCQQYYSSWTFGQGTKVEIK | 247 | 50 | 1110 |
| PD1-IL2-R02-A08 (scFv, V domains shown, cf) VH: QVQLVQSGAEVKKPGASVKVSCKVSGYTFTSYDINWVRQAPGQGLEWMGWINPNSGDTGYAQKFQGRVTMTRDTSTSTVYMELSSLRSEDTAVYYCARDTGLGYYYGSGDFDYWGQGTLVTVSS VL: DIQMTQSPSSLSASVGDRVTITCQASQDIHNYLNWYQQKPGKAPKLLIYDVSNLETGVPSRFSGSGSGTDFTLTISSLQPEDFATYYCQQAISFPLTFGGGTKVEIK | 520 | 995 | 1610 |
